Test results published in IntAct's records for PubMed 22752157.

B1: Kinase suppressor of Ras 1 (Mus musculus), Q61097 (parent)
chain: MDRAALRAAAMGEKKEGGGGGAAADGGAGAAVSRALQQCGQLQKLIDISIGSLRGLRTKCSVSNDLTQQEIRTLEAKLVKYICKQQQSKLSVTPSDRTAELNSYPRFSDWLYIFNVRPEVVQEIPQELTLDALLEMDEAKAKEMLRRWGASTEECSRLQQALTCLRKVTGLGGEHKMDSGWSSTDARDSSLGPPMDMLSSLGRAGASTQGPRSISVSALPASDSPVPGLSEGLSDSCIPLHTSGRLTPRALHSFITPPTTPQLRRHAKLKPPRTPPPPSRKVFQLLPSFPTLTRSKSHESQLGNRIDDVTPMKFELPHGSPQLVRRDIGLSVTHRFSTKSWLSQVCNVCQKSMIFGVKCKHCRLKCHNKCTKEAPACRITFLPLARLRRTESVPSDINNPVDRAAEPHFGTLPKALTKKEHPPAMNLDSSSNPSSTTSSTPSSPAPFLTSSNPSSATTPPNPSPGQRDSRFSFPDISACSQAAPLSSTADSTRLDDQPKTDVLGVHEAEAEEPEAGKSEAEDDEEDEVDDLPSSRRPWRGPISRKASQTSVYLQEWDIPFEQVELGEPIGQGRWGRVHRGRWHGEVAIRLLEMDGHNQDHLKLFKKEVMNYRQTRHENVVLFMGACMNPPHLAIITSFCKGRTLHSFVRDPKTSLDINKTRQIAQEIIKGMGYLHAKGIVHKDLKSKNVFYDNGKVVITDFGLFGISGVVREERRENQLKLSHDWLCYLAPEIVREMIPGRDEDQLPFSKAADVYAFGTVWYELQARDWPFKHQPAEALIWQIGSGEGVRRVLASVSLGKEVGEILSACWAFDLQERPSFSLLMDMLERLPKLNRRLSHPGHFWKSADINSSKVMPRFERFGLGTLESGNPKM

Variants of: B1
Details: with VRK2, Q86Y07-1
Chain of VRK2, Q86Y07-1 (Q86Y07 whole entry): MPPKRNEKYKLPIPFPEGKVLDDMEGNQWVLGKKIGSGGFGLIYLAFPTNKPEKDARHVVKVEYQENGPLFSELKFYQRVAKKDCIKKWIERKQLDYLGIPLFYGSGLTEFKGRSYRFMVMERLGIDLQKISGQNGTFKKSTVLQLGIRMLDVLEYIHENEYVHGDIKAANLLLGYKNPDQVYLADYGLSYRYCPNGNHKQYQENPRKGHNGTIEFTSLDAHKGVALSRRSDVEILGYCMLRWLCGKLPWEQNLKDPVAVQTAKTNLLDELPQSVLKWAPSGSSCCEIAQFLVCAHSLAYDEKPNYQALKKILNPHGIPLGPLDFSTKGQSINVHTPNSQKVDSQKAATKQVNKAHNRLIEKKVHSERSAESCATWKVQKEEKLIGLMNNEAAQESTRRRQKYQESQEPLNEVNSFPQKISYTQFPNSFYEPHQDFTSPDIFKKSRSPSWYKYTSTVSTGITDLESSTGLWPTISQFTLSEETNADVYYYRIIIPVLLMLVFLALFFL

effect of a mutation on the interaction	Variant
decreasing interaction	C809Y
